# Key:
# [1] = cited from earlier work
# [2] = In vitro release of rhodamine B from microneedle arrays in 1×PBS at 37° C.; assay type: physicochemical; details: within the first hour, rhodamine B encapsulated in PEGDA microneedles and backing layer
# Experimental: Encapsulation of a Model Drug: Imaging and In Vitro Release Rhodamine B was dissolved in the prepolymer solution at a concentration of 0.09, 0.17 and 0.44 weight %, respectively. The drug-laden microneedle samples were imaged using a fluorescence stereomicroscope (Nikon, Japan). The amount of drug encapsulated in the microneedles was calculated from the percent weight of the drugs in the prepolymer solution and the weight of fabricated microneedles. Selective incorporation of rhodamine B in the backing layer or microneedle shafts was made possible by using the prepolymer solutions containing the model drug to fabricate the backing layer or microneedles respectively. In vitro release of rhodamine B was tested by suspending fabricated microneedle arrays in 15 ml of 1×PBS, at 37° C. and sampled at regular intervals. At each sampling point, the whole 15 ml of release medium was withdrawn and replaced with 15 ml of fresh 1×PBS. The samples were stored at 4° C. before analysis. The amount released was quantified by measuring rhodamine B fluorescence at excitation and emission wavelengths of 554 nm and 586 nm, respectively, with a Tecan 2000 microplate reader (Tecan, Austria). In Vitro Permeation Through Rat Skin
# [3] = Collagen permeation through microneedle pretreated rat skin (confocal fluorescence); assay type: in vitro ADME
# Experimental: Microneedles of the longest range of length were inserted into excised rat abdominal skin. Hair and fat were removed as mentioned previously. The skin was fully stretched on a thin layer of PDMS to mimic tissue-like mechanical support. A force of 10 N was applied using the digital force gauge (Dillon GL, USA) for 2 minutes. Bovine skin collagen type 1, FITC conjugate (MW=300 kDa) of concentrations 0.025, 0.050 and 0.075% w/v was obtained by diluting the stock collagen solution (0.1% w/v) withappropriate amount of 0.1 M Tris-HCl buffer (pH 7.8) containing 0.4 M NaCl, 10 mM CaCl2 and 0.25 M glucose. NaCl and CaCl2 aid in stabilizing the collagen molecules and glucose is added to prevent gelation of the collagen fibers. Each collagen concentration was applied to separate skin samples at the area of insertion. The time of contact between the collagen solution and the skin was kept constant at 4 hours at room temperature, after which excess collagen on the skin surface was removed using Kimwipe (Kimberly-Clark, Roswell, Ga.). The degree of permeation of collagen through the skin was quantified by using the A-1R confocal microscope (Nikon, Japan) to observe the fluorescence intensity of collagen type 1, FITC conjugate at excitation and emission wavelengths of 490 nm and 520 nm respectively. […]
# [4] = Circular dichroism, secondary structure stability of BSA in microneedles; assay type: physicochemical; details: far UV CD 260-200 nm; microneedle release samples stored 3 days at 37° C.; degraded control: 75° C. or pH 2
# Experimental: Circular dichroism (CD) spectroscopy was performed on the samples to evaluate the secondary structural characteristics of bovine serum albumin in the fabricated microneedles. The analysis was performed in a Jasco J-810 spectropolarimeter (Jasco, Tokyo, Japan) with a 1 mm light path quartz cell (Helima, Müllheim, Germany). Data was acquired at a bandwidth of 0.1 nm with a scan speed of 50 nm/min and a response time of 8 seconds. […] The microneedle release samples were first filtered using micro-centrifugal concentrators, (30 kDa cut-off) (Vivaspin 20, GE, UK) to separate the protein from polymer. Average value from triplicate measurements was used to plot the curve of molar ellipticity to wavelength. Molar ellipticity was calculated using the following equation: […]
# The percentage of α-helix was calculated from the following equation
# [formula] Tertiary Structure Stability
# [5] = Fluorescence spectroscopy, tertiary structure stability of BSA in microneedles; assay type: physicochemical; details: excitation 280 nm
# Experimental: In order to evaluate the tertiary structural changes in the protein conformation, fluorescence spectra was analyzed for protein samples. […] The emission spectra were studied in the range of 300-400 nm at a fixed excitation wavelength of 280 nm using a Hitachi F-7000 fluorescence spectrophotometer. The fluorescence intensities were plotted against wavelength as an average of triplicate measurements.
molecule,measurement,setting,value
O=C(O)CN(CC(=O)O)Cc1cc2c(cc1O)Oc1cc(O)c(CN(CC(=O)O)CC(=O)O)cc1C21OC(=O)c2ccccc21 [calcein],log P,[1],−5.02
"CCN(CC)c1ccc2c(-c3ccccc3C(=O)O)c3ccc(=[N+](CC)CC)cc-3oc2c1.[Cl-] [rhodamine B, Rhodamine B]",encapsulated drug released,[2],~30%
same,log P,[1],2.43
"bovine collagen type 1, FITC conjugate: model macromolecule, MW=300 kDa, applied to microneedle pretreated skin",diffusion of collagen molecules after treatment of skin with microneedles,[3],greatly enhanced
degraded BSA: BSA degraded by heating at 75° C. and under acidic conditions of pH 2,secondary structure / ellipticity by circular dichroism,[4],significantly lower ellipticity values
same,fluorescence,"[5]; BSA denatured using heat or acid, emission 300-400 nm",did not show any fluorescence
standard solution of BSA: standard BSA solution 0.026 mg/ml in purified water,emission maximum,"[5]; standard BSA solution, scanned 300-400 nm",338 nm

# From patent US10272233B2, “Method to fabricate polymeric microneedles” (National University of Singapore, priority 2012, dated 2019)
